Measurements reported in US20250243282A1 (TRUEBINDING, published 2025).

B1: F846TC.14E4 (antibody, human IgG4 S228P, kappa, V domains shown)
VH: QVTLKESGPGILQPSQTLSLTCSFSGFSLSTSGMGVGWIRQPSGKGLEWLAHIWWDDDKYYNTALKSGLTISKDASKNQVFLKIASMDTADTATYYCARNLYDGSYGYYAMDYWGQGTSVTVSS
VL: DIVMTQAAFSNPVTLGTSASISCRSSKSLLHTNGITFLYWYLQKPGQSPQPLIYQMSNLASGVPDRFSSSGSGTDFTLRISRVEAEDVGVYYCAQNLELPWTFGGGTKLEINR
B2: 13G4.2F8 (antibody, human IgG4 S228P, kappa, V domains shown)
VH: QVQLQQPGAELVKPGASVKLSCKASGYTFTSYWMHWVKQRPGQGLEWIGMIHPNSGSTDYNEKFKNKATLNVDKSSSTAYIQLSSLTSEDSAVYYCTRWGIYYYARDYWGQGTTLTVSS
VL: DIVMTQSQKFMSTSVGERVSITCKASQNVGTNVAWYQQKAGQSLELLIYGASNRHTGVPDRFTGSGSGTDFTLTITNVQSEDMTNYFCEQYSNFPLTFGAGTKLELKR
B3: 6B3.2D3 (antibody, human IgG4 S228P, kappa, V domains shown)
VH: QVQLKQSGPGLVQPSQSLSITCTVSGFSLTSYGVHWVRQPPGKGLEWLGVIWSGGSTDYNAAFISRLSISKDNSKSQVFFKMNSLQADDTAIYYCAKGPYDYDLGWFAYWGQGTLVTVSA
VL: SIVMTQTPKFLLVSAGDRVTITCKASQSVSNDVAWYQQKPGQSPKLLIYYASNRYTGVPDRFTGSGYGTDFTFTISTVQAEDLAVYFCQQDYTSPYTFGGGTKLEIKR
B4: 3B11.2G2 (antibody, mouse IgG2a, V domains shown)
VH: QIQLVQSGPELKKPGETVKISCKTSGYKFKTYVMSWVKQAPGKALKWMGWINTYSGVPTYADDFKGRFAFSLETSASTAYLEIINLKNEDTATYFCARDGNYGDPMDYWGQGTSVTVSS
VL: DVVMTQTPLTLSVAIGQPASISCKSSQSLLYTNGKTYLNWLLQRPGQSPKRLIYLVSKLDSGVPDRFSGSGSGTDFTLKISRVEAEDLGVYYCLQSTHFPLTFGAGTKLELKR
B5: 13A12.2E5 (antibody, mouse IgG2a, V domains shown)
VH: QIQLVQSGPELKKPGETVKISCKTSGYKFKTYVMSWVKQAPGKALKWMGWINTYSGVPTYADDFKGRFAFSLETSASTAYLEIINLKNEDTATYFCARDGNYGDPMDYWGQGTSVTVSS
VL: DVVMTQTPLTLSVAIGQPASISCKSSQSLLYTNGKTYLNWLLQRPGQSPKRLIYLLSKLDSGVPDRFSASGSGTDFTLKISRVEAEDLGVYYCLQSTHFPLTFGAGTKLEMKR
B6: 14H10.2C9 (antibody, mouse IgG2a, V domains shown)
VH: QIQLVQSGPELKKPGETVKISCKASGYTFTTYGMGWVKQAPGKDLKWMGWINTYSGVPTYADDFKGRFAFSLETSASTAYLQISNLKNEDTATYFCSTPYEYDGAYWGQGTLVTVSA
VL: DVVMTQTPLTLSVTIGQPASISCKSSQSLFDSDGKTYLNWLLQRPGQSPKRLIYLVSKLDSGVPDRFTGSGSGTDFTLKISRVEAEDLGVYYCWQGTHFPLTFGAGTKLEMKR
B7: 20D11.2C6 (antibody, mouse IgG2a, V domains shown)
VH: EVQLQQSGPELVKPGASVKISCKASGYTFTDFYINWVKQSHGKSLEWIGDINPKNGGINYNPKFKIKATLTVDKSSSTSYMDLRGLTSEDSAVYYCTSGYGFPYWGQGTLVTVSA
VL: DIQMNQSPSSLSASLGDTITITCRASQNIYIWLSWYQQKPGNIPKLLIYKASNLHTGVPSRFSGSGSGTDFTLTISTLQPEDIATYFCLQGQSYPLTFGAGTKLEMKR
B8: F846TC.7F10 (antibody, human IgG4 S228P, kappa, V domains shown)
VH: EVQLVESGGDLVKPGGSLKLSCAASGFTFSNYGLSWIRQTPDKRLEWVATISSGGSYTYYPDSVKGRFTISRDSAKNTLYLQMSSLKSEDTAMYYCARHAHYYGVSPYYFDYWGQGTCLTVSS
VL: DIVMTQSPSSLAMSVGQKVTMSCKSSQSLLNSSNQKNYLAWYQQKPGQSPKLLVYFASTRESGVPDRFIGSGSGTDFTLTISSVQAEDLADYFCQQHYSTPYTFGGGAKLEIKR
B9: 9H2.2H10 (antibody, human IgG4 S228P, kappa, V domains shown)
VH: QVQLQQPGAELVGPGSSVKLSCKASGYTFTNYWIHWVKQRPLQGLEWIGNIDPSDSETHYNQKFKDKATLTVDKSSSTAYMQLSSLTSEDSAVYYCARHGYYDYWGQGTTLTVSS
VL: DIVMTQSHKFMSTSVGDRVSITCKASQDVSTAVAWYQQKPGQSPKLLIYWASTRHTGVPDRFTGSGSGTDYTLTISSVQAEDLALYYCQQHYTTPLTFGAGTKLELKR
B10: 15F10.2D6 (antibody, mouse IgG2a, V domains shown)
VH: EVQLVESGGGLVKPGGSLKLSCAASGFAFSSYAMSWVRQTPEKRLEWVATISDGGVYTYYTDHVKGRFTISRDNAEDNLYLQMSHLKSEDTAMYYCVRDGGYWGQGTTLTVSS
VL: DVLMTQTPLSLPVSLGDQASISCRSSQSIVHNNGNTYLEWYLQKPGQSPKLLIYKVSNRFSGVPDRFSGSGSGTDFTLKISRVEAEDLGVYYCFQGSHVPLTFGGGTKLELKR
B11: F849C.8D10 (antibody, human IgG4 S228P, kappa, V domains shown)
VH: QVQLQQTGAELVKPGASVKLSCKASGYTFTSYWINWVKQRPGQGLEWIGNIYPGSSSIYYSEKFKSKATLTVDTSSSTAYMQLSSLTSDDSAVYYCARWGYWGQGTTLTVSS
VL: DVLMTQTPLSLPVSLGDQASISCRSSQDIVHSSGNTYLEWYLQKPGQSLKLLIYKVSNRFSGVPDRFSASGSGTDFTLKISRVEAEDLGVYYCFQGSHVPPTFGSGTKLEIKR
B12: 7D8.2D8 (antibody, mouse IgG2a, V domains shown)
VH: EVQLVESGGGLVKPGGSLKLSCAASGFTFSSYAMSWVRQTPEKRLEWVATISDGGIYTYYPDNVKGRFTISRDNAKNNLFLQMSHLKSEDTAMYYCVRDGGYWGQGTTLTVSS
VL: DVLMTQTPLSLPVSLGDQASISCRSSQSIVHSNGNTYLEWYLQKPGQSPKLLIYKVSNRFSGVPDRFSGSGSGTDFTLKISRVEAEDLGVYYCFQGSHVPLTFGAGTKLELKR
B13: F846C.1F5 (antibody, human IgG4 S228P, kappa, V domains shown)
VH: QIQLVQSGPELKKPGETVKISCKASGYTFTNYGMNWVKQAPGKGLKWMGWINTYTGEPSYADDFKGRFAFSLETSASTAYLQINNLKNEDMATYFCARWGGYDGDYYAMDYWGQGTSVTVSS
VL: NIMMTQSPSSLAVSAGEKVTMSCKSSQSVLYSSNQKNYLAWYQQKPGQSPKLLIYWASTRESGVPDRFTGSGSGTDFTLTISSVQPEDLAVYYCHQYLSSLTFGAGTKLELKR
B14: F846C.2H3 (antibody, human IgG4 S228P, kappa, V domains shown)
VH: QIQLVQSGPELKKPGETVKISCKASGYTFTNYGMNWVKQAPGKGLKWMGWINTYTGEPSYADDFKGRFAFSLETSASTAYLQINNLKNEDMATYFCARWGGYDGDYYAMDYWGQGTSVTVSS
VL: NIMMTQSPSSLAVSAGEKVTMSCKSSQSVLYSSNQKNYLAWYQQKPGQSPKLLIYWASTRESGVPDRFTGSGSGTDFTLTISSVQPEDLAVYYCHQYLSSLTFGAGTKLELKR
B15: F846C.1H12 (antibody, human IgG4 S228P, kappa, V domains shown)
VH: QIQLVQSGPELKKPGETVKISCKASGYTFTNFGMNWVKQAPGKGLKWMGWINTYTGEPSYADDFKGRFAFSLETSASTAYLQINNLKNEDIATYFCARWGGYAGDYYAMDYWGQGTSVTVSS
VL: NIMMTQSPSSLAVSAGQKVTMSCKSSQSVLYSSSQKNYLAWYQQKPGQSPKLLIYWASTRESGVPDRFSGSGSGTDFTLTISSVQPEDLAVYYCHQYLSSLTFGAGTKLELKR
B16: F846C.1B2 (antibody, human IgG4 S228P, kappa, V domains shown)
VH: QIQLVQSGPELKKPGETVKISCKASGYTFTNYGMNWVKQAPGKGLKWMGWINTYTGEPSYADDFKGRFAFSLETSASTAYLQINNLKNEDMATYFCARWGGYAGDYYAMDFWGQGTSVTVSS
VL: NIWLTQSPSSLAVSAGEMVTMTCKSSQSVLYSSNQKNYLAWYQQKPGQSPKLLIYWASTRESGVPDRFTGSGSGTDFSLTISSVQAEDLAVYYCHQYLSSLTFGAGTKLELKR
B17: F846TC.16B5 (antibody, human IgG4 S228P, kappa, V domains shown)
VH: QIQLVQSGPELKKPGETVKISCKASGYTFTNYGMNWVKQAPGKGLKWMGWINTYTGEPAYADDFKGRFAFSLETSASTAYLQINNLKNEDMATYFCARWGGYDGDYYAMDYWGQGTSVTVSS
VL: NIMMTQSPSSLAVSAGEKVTMSCKSSQSVLYSSNQKNYLAWYQQKPGQSPKLLIYWASTRESGVPDRFTGSGSGTDFTLTISSVQAEDLAVYYCHQYLSSLTFGAGTKLELKR
B18: 849.1D2 (antibody, V domains shown)
VH: QVQLKESGPVLVAPSQSLSITCTVSGFSLSSYGVHWVRQPPGKGLEWLGVIWAGGSTDYDSALMSRLSISKDNSKSQVFLKMDSLQTDDTAMYYCAKPPYDYDGAWFAYWGQGTLVTVSA
VL: DVVMTQTPKFLLVSAGDRVTITCKASQSVSSDVAWYQQKPGQSPKLLIYFASNRYTGVPDRFTGSGYGTDFTFTISTVQAEDLAVYFCQHNYISPFTFGGGTKLEIK
B19: 849.2D7 (antibody, V domains shown)
VH: QVQLQQSGPQLVRPGASVKISCKASGYSFTNYWMHWVKQRPGQGLEWIGMIDPSDSETRLNQKFKDKATLTVDKSSSTAYMQLSSPTSEDSAVYYCATGRPDYWGQGTTLTVSS
VL: DIVMTQSHKFMSTSVGDRVSITCKASQDVSTAVAWYQQKPGQSPKLLIYWASTRHTGVPDRFTGSGSGTDYTLTISSVQAEDLALYYCQQHYSTPYTFGGGTKLEIK

Tests used:
[1] = target: T1, Recombinant human Gal3 (rhGal3) (TrueBinding, #QC200361) (human, UniProt P17931 2-250); test: cell-based or functional assay
[2] = target: T1, Recombinant human Gal3 (rhGal3) …; test: cell-based or functional assay; remark: listed apart in the source
Further: test concentration or dose not given here.

Row | Binder | % inhibition of CD62L shedding [1] | % inhibition of IL-6 secretion [2] | % inhibition of TNFα secretion [2]
1 | B1 | 90.3% | 15.7% | 50.1%
2 | B2 | 94.3% | 55.1% | 83.2%
3 | B3 | 98.9% | 0.2% | -1.2%
4 | B4 | 92.7% | -4.6% | 46.1%
5 | B5 | 87.1% | 39.4% | 61.8%
6 | B6 | 86.3% | 55.6% | 54%
7 | B7 | 89.4% | 43.7% | 69.1%
8 | B8 | 96.1% | -2.5% | 72.3%
9 | B9 | 67.7% | -99.1% | -39.2%
10 | B10 | 82.5% | 51.5% | 73.5%
11 | B11 | 180% | -75.8% | -5.5%
12 | B12 | 88.6% | 17.4% | -11.5%
13 | B13 | 76.3% | -16% | 51.7%
14 | B14 | 93.6% | -49.1% | 62.8%
15 | B15 | 100% | 51.8% | 95.3%
16 | B16 | 99% | -9% | 43.9%
17 | B17 | 84.2% | -204% | -11.4%
18 | B18 | 130% | 26.8% | 37%
19 | B19 | 78.1% | 39% | 42.7%
